From patent US20250388663A1 (INSTITUT NATIONAL DE LA SANT ET DE LA RECHERCHE M DICALE, published 2025) come the findings set out here.

In assay [1] the target is T1, mouse serum albumin (mouse, UniProt P07724 25-608).
T1 construct: also called MSA; murine serum albumin
In words: SPR (openSPR), control channel blocked with the non-relevant sdAb and ethanolamine, albumin perfused. Conditions: scale: % of binding to OptiAlb-12-coated channels.

Assay [2] has as its target human serum albumin (human) (UniProt P02768). Described as above. Conditions: scale: % of binding to OptiAlb-12-coated channels.
The target in assay [3] is T1, mouse serum albumin. In words: ELISA, MSA coated at 2 ug/ml, nanobody titrated, anti-cMyc-HRP detection. (In an ELISA, binding on a coated surface is turned into a signal by an enzyme label.)
Method: After washing wells with PBS/0.1% Tween-20, wells were blocked by incubating with PBS/1% bovine serum albumin (BSA) for 1 h at 37° C. […] After three washes with PBS/0.1% Tween-20, bound proteins were probed using polyclonal peroxidase-labelled anti-cMyc antibodies (1:5,000 dilution), and detected via hydrolysis of 3,3′,5,5′-tetramethylbenzidine.

T1 sequence (P07724 25-608 limits assumed): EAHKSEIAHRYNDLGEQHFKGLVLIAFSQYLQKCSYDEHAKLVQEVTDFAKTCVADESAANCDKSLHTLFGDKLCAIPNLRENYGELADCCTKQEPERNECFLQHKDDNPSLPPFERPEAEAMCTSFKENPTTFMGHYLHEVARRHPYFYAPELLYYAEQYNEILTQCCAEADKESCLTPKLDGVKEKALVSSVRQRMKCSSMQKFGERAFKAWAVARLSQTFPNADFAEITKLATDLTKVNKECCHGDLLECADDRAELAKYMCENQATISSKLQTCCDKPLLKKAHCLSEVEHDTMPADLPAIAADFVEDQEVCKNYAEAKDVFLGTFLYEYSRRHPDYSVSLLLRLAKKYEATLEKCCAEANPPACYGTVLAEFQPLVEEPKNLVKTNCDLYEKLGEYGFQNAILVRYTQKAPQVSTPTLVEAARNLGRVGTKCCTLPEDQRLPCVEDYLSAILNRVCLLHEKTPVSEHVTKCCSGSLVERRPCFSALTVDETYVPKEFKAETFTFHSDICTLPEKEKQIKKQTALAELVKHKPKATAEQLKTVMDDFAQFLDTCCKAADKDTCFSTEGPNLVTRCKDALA

As to “non-relevant single-domain antibody (VHH)”, the binding to the control channel as percent of binding to OptiAlb-12-coated channels (with mouse serum albumin [1]; in assay [2]) was less than 3 in each case.

B1: OptiAlb-11 (VHH)
VHH: EVQLVESGGGLVQPGNSLRLSCAASGFTFSSFGMSWVRQAPGKGPEWVSSISGSGHDTLYADSVKGRFTISRDNAKTTLYLQMNSLRPEDTAVYYCTIGGSLTRSSQGTLVTVSS
notes: not shown: C-terminal histidine- and cMyc-tag from the pHEN6 plasmid
As to B1, the binding result in the assay with mouse serum albumin [3] was “binds”.
